Laboratory results published in publication PMC10187669.
Where two headings read alike, the source gives them in different places.

Key:
[1] = molecular target: T1, ZBP1 KH3-KH4 (ZBP1KH34) (Gallus gallus, UniProt O42254 404-561); assay: EMSA
[2] = molecular target: T1, ZBP1 KH3-KH4 (ZBP1KH34); assay: EMSA; remark: listed apart in the source

T1 sequence (O42254 404-561): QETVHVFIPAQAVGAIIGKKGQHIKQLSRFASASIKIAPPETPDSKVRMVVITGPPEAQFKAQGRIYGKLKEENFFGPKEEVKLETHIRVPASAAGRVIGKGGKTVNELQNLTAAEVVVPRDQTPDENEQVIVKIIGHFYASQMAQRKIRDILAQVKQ

Binder	binding result [1]	binding result [2]
ACCGGACUGUUACCAACACCCACACCCC (ssRNA) [A oligonucleotide: chicken beta-actin zipcode unmodified]	binds	
ACCGGACUGUUACCAACACCCACACCCC (ssRNA, m6A at position 6) [B oligonucleotide: zipcode m6A site 1202 (GGm6ACU)]		binds
